In patent US20030219718, “Inhibitors of the S100-p53 protein-protein interaction and method of inhibiting cancer employing the same” (UNIVERSITY OF MARYLAND, BALTIMORE, published 2003):

Target: p53 (UniProt P04637 P04637:1-393)
Assay: EMSA; supershifted by p53 antibody; five times more protein and DNA needed than for GADD45; salmon sperm DNA 1.0 µg
Details: tags: baculovirus expressed, Protein Sciences Inc; chain copies: 4; label: T4 polynucleotide kinase end label
Experimental: Accordingly, mobility shift assays were performed with purified p53 to determine if these sequences in the promoter of S100B were bona fide p53 binding sites, using the GADD45 sequence as a positive control. […] The baculovirus expressed p53 was obtained from Protein Sciences Inc. (Baltimore, Md.). Baculovirus expressed p53 was used (0.6 and 3.0 μg) for binding to the GADD45 and the S100B oligonucleotides respectively.

p53, sequence (P04637 whole entry, one chain of several): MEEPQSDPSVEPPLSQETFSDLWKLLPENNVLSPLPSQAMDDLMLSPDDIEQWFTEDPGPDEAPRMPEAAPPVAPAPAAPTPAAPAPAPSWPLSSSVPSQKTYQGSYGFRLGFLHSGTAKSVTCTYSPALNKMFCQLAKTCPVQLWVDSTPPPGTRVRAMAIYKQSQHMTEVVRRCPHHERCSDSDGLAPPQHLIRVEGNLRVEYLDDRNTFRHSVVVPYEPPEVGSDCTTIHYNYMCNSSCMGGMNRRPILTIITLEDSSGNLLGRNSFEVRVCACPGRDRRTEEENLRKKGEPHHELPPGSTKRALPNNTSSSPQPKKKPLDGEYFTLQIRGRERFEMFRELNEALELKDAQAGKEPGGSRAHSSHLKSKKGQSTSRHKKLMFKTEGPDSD

B1: S100B promoter p53 site (20/20 match, nt 1705-1735) (dsDNA)
DNA 1: GCCTGGGCAAGCTCTGTGCTTCACAGAGCAAGCCTGTGT
DNA 2: ACACAGGCTTGCTCTGTGAAGCACAGAGCTTGCCCAGGC
- binding result: binds
